Literature values as cited in article PMC10743670.
Where two headings read alike, the source gives them in different places.

Tests used:
Asp85 [1] = molecular target: Asp85 (UniProt position 85, EIRYIDWLVTT); conditions: ground state
Asp97 = Asp97 (UniProt position 97, VFRYIDWLLTV); conditions: ground state
Asp85 [2] = molecular target: Asp85 (UniProt position 98, WAQYADWLFTT); conditions: ground state of the R82Q mutant
Asp85 [3] = molecular target: T1, Asp85 (UniProt position 98, WARYADWLFTT); experiment: other (described only as 'a titration of bacteriorhodopsin'); conditions: bacteriorhodopsin with the proton release group deprotonated
Asp85 [4] = molecular target: T1, Asp85; conditions: ground (unphotolysed) state of bacteriorhodopsin; purple-to-blue transition

Exiguobacterium sibiricum rhodopsin (ESR) H57M mutant (Exiguobacterium sibiricum; H57M)
pKa (Asp85 [1]): 6.3

Proteorhodopsin (PR) (uncultured marine gamma-proteobacterium (printed as 'marine γ-proteobacteria'))
pKa (Asp97): ∼7.0

Exiguobacterium sibiricum rhodopsin (ESR) (Exiguobacterium sibiricum)
pKa (Asp85 [1]): <2

Bacteriorhodopsin R82Q mutant (Halobacterium salinarum (printed as Halobacterium halobium); R82Q)
pKa (Asp85 [2]): ≈7.5

Bacteriorhodopsin (bR) (Halobacterium salinarum (printed as Halobacterium halobium))
pKa (Asp85 [3]): ≈7.5 | pKa (Asp85 [4]): ≈2.7
